# Laboratory results from patent EP3581587A1 (Shanghai Benemae Pharmaceutical Corporation, dated 2019).
# Biological target: human activated coagulation factor XI (FXIa) (human, UniProt P03951 19-625)
# Test: cell-based or functional assay
row,"apparent Ki, inhibition of FXIa cleavage of chromogenic substrate S-2366",Binder
1,2.08 nM,"h-34F8 (antibody, human IgG4, V domains shown) VH: QVQLQESGPGLVKPSETLSLTCTVSGFSLTTYHVHWVRQPPGKGLEWIGIMWRDGDTYYNSSLKSRVTISRDTSKNQVSLKLSSVTAADTAVYFCARGGTLTTPFTYWGQGTLVTVSS VL: DVVLTQTPLSLPVTPGEPASISCRSSQSLESRDGNTYLEWYLQKPGQSPQVLLYGVSNRLSGVPDRFSGSGSGTDFTLKISRVEAEDVGVYYCFQATHGPFTFGQGTKLEIKR"
2,1.43 nM,"h-42A5 (antibody, human IgG4, V domains shown) VH: QVTLKESGPVLVKPTETLTLTCTVSGFSLTSYHLHWIRQPPGKALEWMGLMWRDGDTSYNSRLKSRLTISRDTSKSQVVLTMTNMDPVDTATYYCARGMTLATPFLYWGQGTLVTVSS VL: DVVLTQTPLSLSVTPGQPASISCRSSQSLESSDGNTYLEWYLQKPGQSPQLLIYGVSNRFSGVPDRFSGSGSGTDFTLKISRVEAEDLGVYYCFQATRDPFTFGQGTKLEIKR"
3,0.67 nM,"h-19F6 (antibody, human IgG4, V domains shown) VH: EVQLVESGGGLVQPGRSLRLSCTASGFTFSKYAMSWVRQAPGKGLEWVSAINYDGSTTYYADSVKGRFTLSRDNSKNTLYLQMNSLRAEDTAVYYCARHPFNNFGIWFAYWGQGTLVTVS VL: QFQLTQPSSVSASVGDRVTITCERSSGDIGDSYVSWYQQKPGQPPKNVIYADDQRPSGVPDRFSGSIDGSGNSASLTISSLQAEDAADYFCQSYDSNIDFNPVFGGGTKLEVK"
